Assay results published in the supplement of paper PMC10724198.
± gives the standard deviation of the averaged measurements.

Legend:
Saccharomyces cerevisiae [1] = test: protein stability index of tFT-peptide fusion (C-terminal peptide) (PSI (0-1 scale)); higher = more stable (slower turnover)
Protocol: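 MPS profiling in S. cerevisiae of the tFT-X12 degron library: putative degron peptides plus stable controls, 12 aa, fused to the C-terminus of a sfGFP-mCherry timer. Cells are FACS-sorted into 8 mCherry/sfGFP bins and deep-sequenced. PSI runs from 0 (unstable) to 1 (stable). Backgrounds are wild type, das1Δ and doa10Δ at 30 °C, and wild type, das1Δ, cdc34-1 and cdc53-1 at 37 °C; 2-3 technical replicates each.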

Saccharomyces cerevisiae [2] = test: as above; conditions: genetic background: wild type; temperature: 30 C
[3] = genetic background: cdc34-1, temperature: 37 C
[4] = genetic background: cdc53-1, temperature: 37 C
[5] = genetic background: das1 deletion, temperature: 30 C
[6] = genetic background: das1 deletion, temperature: 37 C
[7] = genetic background: doa10 deletion, temperature: 30 C
[8] = genetic background: wild type, temperature: 30 C
[9] = genetic background: wild type, temperature: 37 C
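Also: PSI is a weighted mean of sequencing reads over stability bins, variants kept only with over 10 reads, mCherry proximal and sfGFP distal, peptide attached via GGGS linker.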

Sequence | protein stability index (Saccharomyces cerevisiae [1]; [3]) | protein stability index (Saccharomyces cerevisiae [1]; [4]) | protein stability index (Saccharomyces cerevisiae [1]; [5]) | protein stability index (Saccharomyces cerevisiae [1]; [6]) | protein stability index (Saccharomyces cerevisiae [1]; [7]) | protein stability index (Saccharomyces cerevisiae [1]; [8]) | protein stability index (Saccharomyces cerevisiae [1]; [9]) | protein stability index (Saccharomyces cerevisiae [2])
RMCPWVSVRVGV | 0.558 ± 0.028 | 0.5891 ± 0.0027 | 0.382 ± 0.036 | 0.5922 ± 0.0023 | 0.3537 ± 0.0019 | 0.391 ± 0.013 | 0.5825 ± 0.00065 | 0.485 ± 0.0071
RPRRARLPNFLA | 0.37 ± 0.0066 | 0.64023 ± 0.0001 | 0.653 ± 0.022 | 0.705 ± 0.018 | 0.0688 ± 0.021 | 0.073 ± 0.0067 | 0.0894 ± 0.0014 | 0.0979 ± 0.012
RPRVAGLMTLVS | 0.698 ± 0.013 | 0.686 ± 0.052 | 0.543 ± 0.018 | 0.707 ± 0.025 | 0.459 ± 0.03 | 0.459 ± 0.032 | 0.672 ± 0.0094 | 0.5 ± 0.0055
RRSRLYKKAGLM | 0.609 ± 0.011 | 0.7374 ± 0.0017 | 0.643 ± 0.02 | 0.745 ± 0.011 | 0.179 ± 0.001 | 0.181 ± 0.037 | 0.296 ± 0.0014 | 0.301 ± 0.064
RSIVFRVSRRLN | 0.65 ± 0.074 | 0.729 ± 0.019 | 0.671 ± 0.023 | 0.726 ± 0.015 | 0.13 ± 0.0084 | 0.161 ± 0.025 | 0.343 ± 0.044 | 0.277 ± 0.034
RTKIKKKIMKNI | 0.621 ± 0.051 | 0.718 ± 0.032 | 0.667 ± 0.023 | 0.716 ± 0.029 | 0.473 ± 0.052 | 0.532 ± 0.016 | 0.651 ± 0.037 | 0.515 ± 0.062
RVCCLSFFFVFL | 0.445 ± 0.022 | 0.581 ± 0.054 | 0.398 ± 0.036 | 0.581 ± 0.014 | 0.427 ± 0.0094 | 0.391 ± 0.0052 | 0.551 ± 0.027 | 0.517 ± 0.024
RVCYQIAISLPI | 0.546 ± 0.0067 | 0.571 ± 0.027 | 0.438 ± 0.012 | 0.552 ± 0.013 | 0.428 ± 0.022 | 0.432 ± 0.02 | 0.542 ± 0.03 | 0.495 ± 0.016
RVDVSVLWNRRS | 0.655 ± 0.045 | 0.75995 ± 0.0007 | 0.669 ± 0.0086 | 0.744 ± 0.028 | 0.284 ± 0.026 | 0.312 ± 0.038 | 0.511 ± 0.013 | 0.4857 ± 0.0047
RVEPYDLARRVL | 0.725 ± 0.038 | 0.768 ± 0.028 | 0.665 ± 0.027 | 0.759 ± 0.02 | 0.652 ± 0.025 | 0.628 ± 0.015 | 0.71 ± 0.018 | 0.726 ± 0.0081
RVITRMLLMVIR | 0.318 ± 0.056 | 0.365 ± 0.031 | 0.353 ± 0.029 | 0.512 ± 0.019 | 0.493 ± 0.0081 | 0.359 ± 0.011 | 0.47449 ± 0.00047 | 0.43 ± 0.036
RVPCCLSFVPVC | 0.508 ± 0.032 | 0.5131 ± 0.004 | 0.394 ± 0.026 | 0.5682 ± 0.0047 | 0.363 ± 0.0097 | 0.405 ± 0.027 | 0.5362 ± 0.0037 | 0.452 ± 0.033
RVSECVSVVGWM | 0.678 ± 0.082 | 0.723 ± 0.025 | 0.624 ± 0.019 | 0.737 ± 0.011 | 0.619 ± 0.024 | 0.633 ± 0.0064 | 0.7147 ± 0.0044 | 0.562 ± 0.14
RVYLLGLFVRSG | 0.552 ± 0.035 | 0.61 ± 0.014 | 0.409 ± 0.04 | 0.632 ± 0.021 | 0.325 ± 0.017 | 0.371 ± 0.031 | 0.574 ± 0.033 | 0.491 ± 0.0076
RWCLELLWITSC | 0.325 ± 0.013 | 0.451 ± 0.013 | 0.355 ± 0.03 | 0.5006 ± 0.005 | 0.0892 ± 0.0011 | 0.0824 ± 0.015 | 0.0678 ± 0.011 | 0.162 ± 0.015
RWPLVIRSLIVF | 0.196 ± 0.0088 | 0.226 ± 0.0098 | 0.251 ± 0.026 | 0.325 ± 0.019 | 0.214 ± 0.00073 | 0.22 ± 0.017 | 0.233 ± 0.01 | 0.2944 ± 0.0027
RWRRWCVVLFVV | 0.197 ± 0.043 | 0.307 ± 0.021 | 0.301 ± 0.025 | 0.456 ± 0.0067 | 0.0648 ± 0.015 | 0.0689 ± 0.013 | 0.0816 ± 0.01 | 0.117 ± 0.012
RYVFAFRRNYFC | 0.448 ± 0.089 | 0.682 ± 0.0095 | 0.636 ± 0.018 | 0.744 ± 0.0096 | 0.171 ± 0.014 | 0.174 ± 0.026 | 0.299 ± 0.038 | 0.223 ± 0.015
RYVVVGACIQVV | 0.421 ± 0.015 | 0.447 ± 0.0078 | 0.302 ± 0.024 | 0.48 ± 0.0021 | 0.274 ± 0.015 | 0.314 ± 0.012 | 0.4511 ± 0.003 | 0.37 ± 0.011
